In test [1] the target is recombinant PI4KIIα (lab-made) (human) (UniProt Q9BTU6). Description: MST; fluorescently labelled PI4KIIα (5 nM) constant, unlabelled ligand protein titrated; Tris-based MST buffer; Monolith NT.115 pico; no PI.
The target is the same in test [2]. Description: MST; fluorescently labelled PI4KIIα (5 nM) mixed with 1 μM PI (micelles) before the ligand protein, unlabelled ligand titrated; Tris-based MST buffer; Monolith NT.115 pico.

Usually Kd stands for a measure of binding affinity in units of concentration.

Chain of UniProt Q9BTU6 (Q9BTU6 whole entry): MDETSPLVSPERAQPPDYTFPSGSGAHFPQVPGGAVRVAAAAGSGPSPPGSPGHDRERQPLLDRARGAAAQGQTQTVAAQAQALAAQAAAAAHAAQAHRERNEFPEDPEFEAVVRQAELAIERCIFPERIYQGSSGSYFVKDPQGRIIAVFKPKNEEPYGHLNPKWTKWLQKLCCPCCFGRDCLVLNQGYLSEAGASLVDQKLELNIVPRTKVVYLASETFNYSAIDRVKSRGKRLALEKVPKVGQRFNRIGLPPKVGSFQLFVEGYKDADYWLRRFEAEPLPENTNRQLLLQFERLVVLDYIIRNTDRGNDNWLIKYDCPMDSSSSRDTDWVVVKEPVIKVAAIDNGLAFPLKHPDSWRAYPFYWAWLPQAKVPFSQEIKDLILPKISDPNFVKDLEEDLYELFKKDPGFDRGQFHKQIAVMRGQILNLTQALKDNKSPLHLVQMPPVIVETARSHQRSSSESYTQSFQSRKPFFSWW

Consider “recombinant PITPα (#ab101666, Abcam) (from UniProt Q00169 1-270) (natural protein)”, for which the Kd in test [1] was 0.189 µM. For the substance “recombinant PITPβ (#LS-C794864, LSBio) (from UniProt P48739 1-271) (natural protein)”, the Kd in test [1] amounted to 0.263 µM; in test [2], 0.113 µM.

For the origin of these results see article PMC13260207.
